For orientation: Kd means a measure of binding affinity in units of concentration. A word on the koff: it is the rate constant with which the complex falls apart. The kon is a measure of how fast the partners come together.

Assay [1] concerns the target T1, recombinant soluble human TL1A (human, UniProt O95150 71-251).
T1 sequence: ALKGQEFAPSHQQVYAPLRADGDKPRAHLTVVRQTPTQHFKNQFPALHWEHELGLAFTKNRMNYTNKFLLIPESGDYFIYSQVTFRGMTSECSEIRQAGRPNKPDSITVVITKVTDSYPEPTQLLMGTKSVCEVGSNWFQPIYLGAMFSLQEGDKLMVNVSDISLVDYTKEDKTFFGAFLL
Nature of the assay: cell-based or functional assay.

Assay [2] addresses T2, recombinant soluble cynomolgus monkey TL1A (cynomolgus monkey, UniProt O95150 72-251 (human entry)).
T2 construct: also called cyno rsTL1A; cyno TL1A
T2 chain: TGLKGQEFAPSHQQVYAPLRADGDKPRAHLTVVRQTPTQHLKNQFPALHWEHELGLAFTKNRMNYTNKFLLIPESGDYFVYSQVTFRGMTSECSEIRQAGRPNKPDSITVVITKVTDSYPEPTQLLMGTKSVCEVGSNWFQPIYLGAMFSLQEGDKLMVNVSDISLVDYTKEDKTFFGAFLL
Nature of the assay: SPR, IgG captured on anti-hIgG, TL1A injected. For orientation: In SPR one partner is held on a chip, and binding of the other changes the refractive index at the surface.
Description: (§1) The antibodies were captured via directly immobilized anti-human IgG (GE Healthcare) onto a carboxymethylated dextran sensor chip surface (CM5) using a Biacore T100 or T200 instrument. Anti-human IgG was immobilized through amine coupling to densities of approximately 4,000-13,000 response units (RU). […] At the end of each cycle, the entire anti-hIgG surface was regenerated by a 30-second pulse of 3M MgCl₂ followed by two consecutive 15-second pulses of PBS-NET. […] All injections were performed at 25° C. at a collection rate of 10 Hz. All sensorgrams were double referenced by using both a control surface and buffer injections. Rate constants were determined by fitting the data to a 1:1 model in Biacore T100, T200 evaluation software v1.0, or BIAevaluation software v4.1.1 and the equation KD=Kd/kₐ.
(§2) At the highest cytokine concentrations, the dissociation phase was sometimes extended to 60 minutes to achieve at least a 5% decrease in binding signal.

The target of assay [3] is T3, recombinant soluble murine TL1A (mouse, UniProt Q5UBV8 75-252).
T3 construct: also called murine rsTL1A; mouse TL1A
T3 chain: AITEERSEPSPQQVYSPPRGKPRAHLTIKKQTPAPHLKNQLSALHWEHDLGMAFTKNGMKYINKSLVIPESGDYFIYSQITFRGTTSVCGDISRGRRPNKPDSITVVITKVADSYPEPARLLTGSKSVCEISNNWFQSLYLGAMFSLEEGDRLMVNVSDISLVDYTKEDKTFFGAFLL
Description: SPR, IgG captured on anti-hIgG, TL1A injected.
Description: as §1, §2

In assay [4] the target is T1, recombinant soluble human TL1A. Description: SPR, IgG captured on anti-hIgG, TL1A injected; off rate too slow to measure.
Assay [5] has the same target. Description: KinExA, equilibrium in solution. (In general: A kinetic exclusion assay measures how much of one partner remains free in solution.)
Description: This assay involves pre-incubating antibody: antigen mixtures in solution long enough to reach equilibrium before measuring the level of unbound antibody using a solid phase component. […] Beads were blocked for 1 hour with PBS plus 10 mg/ml bovine serum albumin (bovine serum albumin, Sigma) at room temperature before being diluted up to a total of 27 ml in PBS. […] For each titration series, a buffer sample and a sample of antibody alone were included. Each antibody: TL1A mixture was tumbled at room temperature for at least six hours to reach equilibrium and then each mixture was injected over the solid phase of TL1A-coated beads in the instrument flow cell. […] Beads were replenished between each sample. Binding signals of detected free antibody were converted to percentage of free, unbound antibody as measured by the antibody only sample and plotted versus each concentration of TL1A. For each antibody, the KD and ABC controlled curves were fit simultaneously using n-Curve Analysis software v3.1.4 to fit the curves to the ‘affinity, unknown ligand’ model and measure an equilibrium KD.
Solution-based kinetic exclusion assays (KinExA) were carried out as an orthogonal technique to measure equilibrium KD values.
The target is the same in assay [6]. Nature of the assay: SPR, IgG captured on anti-hIgG, TL1A injected.
Description: Biacore analysis was performed using T-200 biosensor, series S CM5 chips and approximately 4000 RU (response units) of an anti-human IgG (GE Healthcare), immobilized in 10 mM sodium acetate immobilization buffer at pH 5.0. Assay conditions were established to minimize the influence of mass transfer, avidity, and rebinding events, as described below. A blank immobilization was carried out on a separate flow cell for reference subtraction. The purified IgGs were diluted in running buffer (PBS, 300 mM sodium chloride, 3.2 mM ethylenediaminetetraacetic acid, 0.01% Tween20) and low levels (<30 RU) captured using a flow rate of 100 μl/min for 2 min, to reduce possible rebinding by the trimeric TL1A. […] Reference-subtracted sensorgrams for each concentration were analyzed using Biacore T-200 evaluation software (v1.0).
Assay [7] addresses T4, recombinant soluble rat TL1A (rat, UniProt Q8K3Y7 76-252).
T4 construct: also called rat rsTL1A
T4 sequence: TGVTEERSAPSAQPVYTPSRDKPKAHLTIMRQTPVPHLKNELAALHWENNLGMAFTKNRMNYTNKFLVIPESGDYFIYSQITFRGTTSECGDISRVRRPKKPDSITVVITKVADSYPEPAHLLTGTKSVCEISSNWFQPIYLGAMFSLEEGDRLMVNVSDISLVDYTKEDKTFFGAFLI
Nature of the assay: SPR, IgG captured on anti-hIgG, TL1A injected.
Description: as §1, §2

Substitutions are numbered along the chain they refer to. Bounds are passed on as bounds.

B1: 1D1 1.28 (antibody, human IgG1, kappa, V domains shown)
VH: QVQLVQSGAEVKKPGASVKVSCKASGYDFTYYGISWVRQAPGQGLEWMGWISTYNGNKHYARMLQGRVTMTTDTSTRTAYMELRSLRSDDTAVYYCARENYYGSGSYRGGMDVWGQGTTVTVSS
VL: EIVLTQSPATLSLSPGERATLSCRASQSVSSYLAWYQQKPGQAPRLLIYDASNRATGIPARFSGSGSGTDFTLTISSLEPEDFAVYYCQQRSNWPWTFGQGTKVEIKR
notes: Expressed as IgG1; also called 1D1 1.28-hIgG1-3m
In the case of B1, in assay [1], the “Caspase Assay, average IC50” value came out at 0.0962 nM and the “NFkB Assay, average IC50” value is 0.189 nM. Also, in assay [2], the Kd came out at 0.144 nM, the koff was 5.4e-05 s⁻¹, the kon was 380000 M⁻¹ s⁻¹ and the t1/2 came out at 215 min. For the same molecule, in assay [3], the Kd is around 1.53 nM, the koff worked out at 0.00032 s⁻¹, the kon came out at 210000 M⁻¹ s⁻¹ and the t1/2 turned out to be 36.1 min. The Kd in assay [4] is below 0.1 nM. The Kd in assay [5] was determined as 0.00252 nM.

B2: 1D1 Fab (Fab, V domains shown)
VH: B1 VH with D28S, K58T, H59N
VL: B1 VL
notes: Made from 1D1 IgG by papain; also called Fab of 1D1
As to B2, in assay [5], the Kd stood at 3 nM.

B3: 1D1 D18 (antibody, V domains shown)
VH: B1 VH with D28S, K58T
VL: B1 VL
notes: IgG with triple mutant Fc as for 1D1 D37
B3: in assay [6], the Kd came out at 0.662 nM, the dissociation rate constant (koff) came out at 0.000473 s⁻¹ and the kon came out at 717000 M⁻¹ s⁻¹.

B4: 1D1 D25 (antibody, V domains shown)
VH: B1 VH with D28S, N57A, K58T
VL: B1 VL
notes: as for B3
Regarding B4, in assay [6], the Kd is 0.453 nM, the koff came out at 0.000387 s⁻¹ and the kon worked out at 868000 M⁻¹ s⁻¹.

B5: 1D1 1.34 (antibody, human IgG1, kappa, V domains shown)
VH: B1 VH with N57K, K58T, L64H, S106A, V113A
VL: B1 VL
notes: Expressed as IgG1
Take B5: in assay [1], the “Caspase Assay, average IC50” value came to 0.0627 nM and the “NFkB Assay, average IC50” value came out at 0.182 nM. Moreover, in assay [2], the Kd is 0.083 nM, the koff worked out at 3.6e-05 s⁻¹, the kon was found to be 440000 M⁻¹ s⁻¹ and the t1/2 amounted to 323 min. Also, in assay [3], the Kd turned out to be 1.11 nM, the koff turned out to be 0.00028 s⁻¹, the kon was determined as 250000 M⁻¹ s⁻¹ and the t1/2 worked out at 41.8 min. The Kd in assay [4] was below 0.1 nM. Besides, in assay [7], the Kd turned out to be 5.92 nM, the koff turned out to be 0.0024 s⁻¹, the association rate constant (kon) came to 410000 M⁻¹ s⁻¹ and the t1/2 was determined as 4.77 min. For the same molecule, the Kd in assay [5] was 0.00116 nM.

B6: 1D1 D21 (antibody, V domains shown)
VH: B1 VH with D28S, N57K, K58T
VL: B1 VL
notes: as for B3
As for B6, in assay [6], the Kd was found to be 0.709 nM, the koff was 0.00052 s⁻¹ and the kon came out at 745000 M⁻¹ s⁻¹.

B7: 1D1 1.29 (antibody, human IgG1, kappa, V domains shown)
VH: B1 VH with N57G, K58T
VL: B1 VL
notes: Expressed as IgG1
As to B7, in assay [1], the “Caspase Assay, average IC50” value amounted to 0.085 nM and the “NFkB Assay, average IC50” value is 0.281 nM. In assay [2], the Kd was 0.092 nM, the koff stood at 4.5e-05 s⁻¹, the kon came to 490000 M⁻¹ s⁻¹ and the t1/2 amounted to 259 min. Also, in assay [3], the Kd turned out to be 2.86 nM, the koff worked out at 0.0007 s⁻¹, the kon is 260000 M⁻¹ s⁻¹ and the t1/2 worked out at 15.8 min. For the same molecule, the Kd in assay [4] was below 0.1 nM. In addition, the Kd in assay [5] came out at 0.0194 nM.

B8: 1D1 D29 (antibody, V domains shown)
VH: B1 VH with D28S, T53S, K58T
VL: B1 VL
notes: as for B3
For B8, in assay [6], the Kd is 0.705 nM, the koff was 0.000712 s⁻¹ and the kon came to 1.01e+06 M⁻¹ s⁻¹.

B9: 1D1 1.30 (antibody, human IgG1, kappa, V domains shown)
VH: B1 VH with N57V, K58T
VL: B1 VL
notes: Expressed as IgG1; also called 1D1 1.30-hIgG1-3m
For B9, in assay [1], the “Caspase Assay, average IC50” value turned out to be 0.103 nM and the “NFkB Assay, average IC50” value is 0.37 nM. Besides, in assay [2], the Kd was found to be 0.142 nM, the koff is 6e-05 s⁻¹, the kon is 410000 M⁻¹ s⁻¹ and the t1/2 was 199 min. Further, in assay [3], the Kd is 5.25 nM, the koff turned out to be 0.0007 s⁻¹, the kon was determined as 140000 M⁻¹ s⁻¹ and the t1/2 was 17.9 min. The Kd in assay [4] is below 0.1 nM. Further, in assay [7], the Kd worked out at 41.9 nM, the koff was found to be 0.0098 s⁻¹, the kon worked out at 240000 M⁻¹ s⁻¹ and the t1/2 is 1.18 min. For the same molecule, the Kd in assay [5] is 0.0068 nM.

B10: 1D1 D31 (antibody, V domains shown)
VH: B1 VH with D28S
VL: B1 VL
notes: as for B3
As for B10, in assay [6], the Kd was determined as 0.518 nM, the koff is 0.00042 s⁻¹ and the kon stood at 822000 M⁻¹ s⁻¹.

B11: 1D1 DH9 (antibody, V domains shown)
VH: B1 VH with D28S, T53P, N57K, K58T
VL: B1 VL
notes: as for B3
For the molecule B11, in assay [6], the Kd was 0.84 nM, the off-rate constant (koff) was determined as 0.000866 s⁻¹ and the kon came to 1.04e+06 M⁻¹ s⁻¹.

B12: 1D1 DH8 (antibody, V domains shown)
VH: B1 VH with D28S, T53A, K58T
VL: B1 VL
notes: as for B3
As for B12, in assay [6], the Kd stood at 0.924 nM, the koff was 0.000896 s⁻¹ and the kon amounted to 977000 M⁻¹ s⁻¹.

B13: 1D1 D5 (antibody, V domains shown)
VH: B1 VH with D28S, K58T, H59N, S106A, Y107F, V113G
VL: B1 VL
notes: as for B3
As for B13, in assay [6], the Kd was determined as 0.625 nM, the koff worked out at 0.000478 s⁻¹ and the kon is 776000 M⁻¹ s⁻¹.

B14: 1D1 1.33 (antibody, human IgG1, kappa, V domains shown)
VH: B1 VH with N57V, K58T, S106A, V113A
VL: B1 VL
notes: Expressed as IgG1; also called 1D1 1.33-hIgG1-3m
In the case of B14, in assay [1], the “Caspase Assay, average IC50” value amounted to 0.146 nM and the “NFkB Assay, average IC50” value stood at 0.2 nM. For the same molecule, in assay [2], the Kd amounted to 0.107 nM, the koff turned out to be 3.7e-05 s⁻¹, the kon is 360000 M⁻¹ s⁻¹ and the t1/2 was determined as 309 min. For the same molecule, in assay [3], the Kd was 1.91 nM, the koff came to 0.00029 s⁻¹, the kon amounted to 160000 M⁻¹ s⁻¹ and the t1/2 was found to be 39 min. Moreover, the Kd in assay [4] was below 0.1 nM. For the same molecule, in assay [5], the Kd turned out to be 0.0106 nM.

B15: 1D1 D28 (antibody, V domains shown)
VH: B1 VH with D28S, N57K, K58T, L64H
VL: B1 VL
notes: as for B3
As to B15, in assay [6], the Kd came to 0.527 nM, the koff came out at 0.000568 s⁻¹ and the kon came to 1.09e+06 M⁻¹ s⁻¹.

B16: 1D1 1.32 (antibody, human IgG1, kappa, V domains shown)
VH: B1 VH with N57G, K58T, S106A, V113A
VL: B1 VL
notes: Expressed as IgG1
Take B16: in assay [1], the “Caspase Assay, average IC50” value was found to be 0.0615 nM and the “NFkB Assay, average IC50” value was 0.18 nM. For the same molecule, in assay [2], the Kd worked out at 0.066 nM, the koff is 2.9e-05 s⁻¹, the kon is 460000 M⁻¹ s⁻¹ and the t1/2 is 398 min. Besides, in assay [3], the Kd worked out at 0.906 nM, the koff came to 0.00023 s⁻¹, the kon was 260000 M⁻¹ s⁻¹ and the t1/2 was determined as 49.5 min. Moreover, the Kd in assay [4] was below 0.1 nM. Moreover, in assay [7], the Kd was found to be 5.02 nM, the koff amounted to 0.0029 s⁻¹, the kon amounted to 580000 M⁻¹ s⁻¹ and the t1/2 is 3.95 min. The Kd in assay [5] is 0.00615 nM.

B17: 1D1 DH10 (antibody, V domains shown)
VH: B1 VH with D28S, K58T, H59N, S106A
VL: B1 VL
notes: as for B3
As to B17, in assay [6], the Kd was 0.589 nM, the dissociation rate constant (koff) was determined as 0.0005 s⁻¹ and the kon is 853000 M⁻¹ s⁻¹.

Values taken from US20260210971A1 (Pfizer, published 2026).
